According to the supplement of paper PMC9170038:

Test system: MS2 coat protein
Assay: apparent KD of MS2 coat protein; designed switch direction (-1 OFF switch, 1 ON switch): -1; higher = weaker reporter binding
How it was run: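 On Illumina chips, designed RNA switches with common flanks were made by stalled E. coli RNA polymerase. Titrations with SNAP-549-labelled MS2 coat protein, doubling from 0.7 or 1.5 nM to 3 µM, were done with no input, with 200 uM small-molecule ligand, or with an oligonucleotide input. Apparent KD is the median per design over clusters, from curve fits of normalised cluster fluorescence.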

[1] = input ligand: microRNA oligo, concentration not stated
[2] = Eterna round: R95, input ligand: FMN 200 uM
[3] = Eterna round: R95, input ligand: microRNA oligo, concentration not stated
[4] = Eterna round: R95, input ligand: none

Sequence	apparent KD of MS2 coat protein (input ligand: FMN 200 uM)	apparent KD of MS2 coat protein (input ligand: none)	apparent KD of MS2 coat protein [1]	apparent KD of MS2 coat protein [2]	apparent KD of MS2 coat protein [3]	apparent KD of MS2 coat protein [4]
AAAUAGCUAGAGGAUAUCGGAUAGGAUUUACUACGAGAAGGUUAGACAUGAGGAUCACCCAUGUUGUGUUGGGA [EX6 #19] (Eterna round: R97, puzzle: Exclusion 6)	59.6 nM	67.9 nM				
AAAUCGGAGGAGGAUAUGGUACAGGAAAUGGUGCCAGAAGGUUUCACAUGAGGAUCACCCAUGUCAAAUAGCGA [EX6 #60] (Eterna round: R97, puzzle: Exclusion 6)	19.1 nM	27.1 nM				
AAAUCGGUAGAGGAUAUUGUACAGGAAACGGUGCAAGAAGGUUGCACAUGAGGAUCACCCAUGUUAAAUUGCGA [EX6 #51] (Eterna round: R97, puzzle: Exclusion 6)	39.4 nM	38.8 nM				
AAAUGACAUUAGGAUAUAUAACGCGGCUGCCGCAUAGAAGGGAUGACUUGAGGAUCACCCAAGUGACCCAAGGA [Arcere] (Eterna round: R97, puzzle: Exclusion 6)	28.2 nM	30.8 nM				
AAAUGUGCGAGAGGAUAUCGUGUACAAAGUACACGAGAAGGCUUCACAUGAGGAUCACCCAUGUACCGAGGUGAAACACCUUGA [Omei Exc(NG)1 Bv4] (Eterna round: R96, puzzle: Exclusion NG 1)	599 nM	198 nM	149 nM			
AAAUUCAGAGGAUAUGCGCAUAGAUAAGACUUUUUUUUUUAACAUGAGGAUCACCCAUGUAGAAGGCUGUAAAU [Ex2 #52] (Eterna round: R97, puzzle: Exclusion 2)	24 nM	25.5 nM				
AACACUGUAGGAUAUCAUGAACUGGACUUGAGGAUCACCCAAGUGUAUCGUGGAGUGCCGUGAGAAGGACGGAUUA [Erleen] (Eterna round: R97, puzzle: Exclusion 5)	28.1 nM	27.2 nM				
AACAGUCUGGAGGAUAUGCUGGAUAAAUAUCUGGCAGAAGGCUGGACAUGAGGAUCACCCAUGUAAAUACUACC [Omei Ex6 A2b] (Eterna round: R97, puzzle: Exclusion 6)	54.5 nM	24.9 nM				
AACAUGAGGAUCACCCAUGUGGGUCCUCUGUGGCAGCGAGACGAGGAUAUCAAUGGAGGGCCAGGUGAGAAGGUGUACGAUCAU [Eternabot solution 28] (Eterna round: R96, puzzle: Exclusion NG 3)	183 nM	386 nM	192 nM			
AACAUGUGAGGAUAUUAUCACAAAGGCGUAGAAAUACGCGAUAAGAAGGCACAUGAGGAUCACCCAUGUUCCGA [EX4 A.24] (Eterna round: R97, puzzle: Exclusion 4)	66.8 nM	17.5 nM				
AACAUUCCAGAAAGGAAUGACAUGAGGAUCACCCAUGUAGGGAUCUAUGCUAAGUUGCUCGUCGCCGCUCCACAAAG [Eternabot (Original) Solution 5] (Eterna round: R97, puzzle: Sensor, turn-off variant 1)	431 nM	362 nM				
AACCUACAUGAGGAUCACCCAUGUGAGGAUAUAUUGUUAUUUAUAUUAUUUUUUAGAGGUAGAAGGCGCGUGAU [JR_Exc1_Sub020] (Eterna round: R97, puzzle: Exclusion 1)	15.9 nM	17.3 nM				
AACCUGAGGCAAAGCUUUAGGCUUACAUGAGGAUCACCCAUGUAGGAUAUGGUAGGCAAAGCUUACCAGAAGGACAUGGAAAUU [Mat - Exclusion NG 3 - Mod of JL - D24] (Eterna round: R96, puzzle: Exclusion NG 3)	611 nM	130 nM	127 nM			
AACCUGAGGCAAAGCUUUAGGUGUACAUGAGGAUCACCCAUGUAGGAUAUGGUAGGCAAAGCUUACCAGAAGGACAUAAUGAUG [Mat - Exclusion NG 3 - Mod of JL - D47] (Eterna round: R96, puzzle: Exclusion NG 3)	100 nM	83.7 nM	45.1 nM			
AACUUCUGAGGAUAUACAUAGAUUUACAUGAGGAUCACCCAUGUUCCUCUAUGUAUAAAUGUAGAAGGCAGAAGAU [Mat - Exclusion 5 - JL Mod - D62] (Eterna round: R97, puzzle: Exclusion 5)	129 nM	18.4 nM				
AACUUCUGAGGAUAUACUUAGAUUUACAUGAGGAUCACCCAUGUUCCUCUUUGUAUAAAUGUAGAAGGCAGAAGAA [JL-ex5-4.38 Malcolm mod] (Eterna round: R97, puzzle: Exclusion 5)	381 nM	45.3 nM				
AAGAAACAUGAGGAUCACCCAUGUGAGGAUAUAGAAAGAAAGAAAAGAAAAGAAAGAACUAGAAGGCACAAAGA [JR_Exclu1_Sub030] (puzzle: Exclusion 1)				26.2 nM	26.4 nM	30.8 nM
AAGAAACAUGAGGAUCACCCAUGUGAGGAUAUGAAAAAGAAAAUAAAAUAAAUAAGAAUCAGAAGGCACAAAGG [Mat - Mod of Hog D5] (puzzle: Exclusion 1)				40.6 nM	45.5 nM	40.2 nM

Sequence	apparent KD of MS2 coat protein (input ligand: FMN 200 uM)	apparent KD of MS2 coat protein (input ligand: none)	apparent KD of MS2 coat protein [1]	apparent KD of MS2 coat protein [2]	apparent KD of MS2 coat protein [3]	apparent KD of MS2 coat protein [4]
AAGAAACAUGAGGAUCACCCAUGUGAGGAUAUGAAGAAGAAAAGAAAAGAAAGAAGAAUCAGAAGGCACAAAGG [salish99-ex1_r3_046] (puzzle: Exclusion 1)				67.1 nM	25.8 nM	48.4 nM
AAGAAACAUGAGGAUCACCCAUGUGAGGAUAUGACAAAGAAAAGAAAAGAAAGAAGAGUCAGAAGGCACAAAGG [salish99-ex1_r3_038] (puzzle: Exclusion 1)				137 nM	53.1 nM	57.7 nM
AAGAAACAUGAGGAUCACCCAUGUGAGGAUAUGAUAAAGAAAAGAAAAGAAAGAAGACUCAGAAGGCACAAAGG [salish99-ex1_r3_041] (puzzle: Exclusion 1)				31 nM	26.7 nM	28.9 nM
AAGAAACAUGAGGAUCACCCAUGUGAGGAUAUGGCCCGCCCGGCGUGAGCUGGUUUUGUCAGAAGGCACAAAGG [salish99_ex1_r4_017] (Eterna round: R97, puzzle: Exclusion 1)	104 nM	41.9 nM				
AAGAAACAUGAGGAUCACCCAUGUGAGGAUAUGGCCCGCCCGGCGUGAGCUGGUUUUGUCAGAAGGCGCAAAGG [salish99_ex1_r4_018] (Eterna round: R97, puzzle: Exclusion 1)	53.9 nM	50.8 nM				
AAGAAGGCAGGAUAUACAAAAUAAAAGAAAAGAAAGAAAGAACAUGAGGAUCACCCAUGUAGAAGGGUCAAGAA [Sankhenre Sewadjtu] (Eterna round: R96, puzzle: Exclusion 2)	52.2 nM	60.7 nM	46.3 nM			
AAGAAGGCCGUAGGAUAUACAGCAAGAACGCGAGUAGAAGGACGAUACAUGAGGAUCACCCAUGUACGUGGGUAGUGCUCGUGC [Soatceri] (Eterna round: R96, puzzle: Exclusion NG 1)	26 nM	21.8 nM	10.9 nM			
AAGACACAUGAGGAUCACCCAUGUGAGGAUAUUCGAUGCUGAGCGUAAGCUUAGUAUCGGAGAAGGCACAUAGG [Salishxclusion 8 - Jieux - Exclusion 1] (Eterna round: R97, puzzle: Exclusion 1)	203 nM	251 nM				
AAGACACAUGAGGAUCACCCAUGUGAGGAUAUUUGAUGCUGAGCGUAAGCUUAGUAUCAGAGAAGGUACAUAGG [Salishxclusion 10 - Jieux - Exclusion 1] (Eterna round: R97, puzzle: Exclusion 1)	105 nM	58.9 nM				
AAGACCAGAGGAUAUCAGACGCGGCACAUGAGGAUCACCCAUGUAUUCCCGUCUGCCGACUGAGAAGGUUGGAAAG [Xeusbi] (puzzle: Exclusion 5)					9.41 nM	
AAGAGGUCAGGAUAUACGGAGAGAGGGAGUUGGUUAGGGUAACAUGAGGAUCACCCAUGUAGAAGGGACUAAGA [JR_Exclu2_Sub079] (puzzle: Exclusion 2)				23.4 nM	23.1 nM	25.1 nM
AAGCGCGUAGGAUAUACAUGAGGAUCACCCAUGUGAGGAGGGAGUUGGAGGUGUGGAAGUAGAAGGACGGAGUG [JR_Exclu3_Sub079] (puzzle: Exclusion 3)					26.9 nM	
AAGGACUGAGGAUAUGCGCGGGCAAGAUCCUCAAUCCCAAAACAUGAGGAUCACCCAUGUAGAAGGCAGAAAUA [Tereenrion] (puzzle: Exclusion 2)					23.4 nM	
AAGUACCGUCACGAUAGUGAUGGUACAACAAGCAAAUGUACAUGAGGAUCACCCAUGUCCUCUUUUGCUCGUCUUGU [Sensor 3 - 100] (puzzle: Sensor v3, turn-off variant 2)				155 nM	30.2 nM	
AAGUACUACAAGCUUUGGGACAUGAGGAUCACCCAUGUUCGUCUUAUUGAUCUAGGUACGCUGACGUACCUAGAUCU [Mat - Sensor v3 - turn-off var 1 - JL Mod - D8] (puzzle: Sensor v3, turn-off variant 1)				16.5 nM	73.4 nM	13.2 nM
AAGUAUAGAGGAUAUAGUGAGUACUACAUGAGGAUCACCCAUGUUCUUCGUUACGUAUUUCUAGAAGGCUGAUAAA [EX-5 Malc#23] (puzzle: Exclusion 5)					106 nM	
AAUAAACAUGAGGAUCACCCAUGUGAGGAUAUACAAAUAAAUAAAUAAAUAAAUAAUAGUAGAAGGCACAAUAA [Excls1-II] (puzzle: Exclusion 1)				35.9 nM	35.3 nM	44 nM
